± gives the uncertainty stated by the source.
Assay: amyloid nucleation score (Sup35N fusion, yeast selection) (log enrichment); library NNK1; higher = more nucleation; inactive = no reads after selection
Outline: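 Random libraries were run with three technical output replicates. In each, psi-negative yeast expressing Sup35N fused to peptides of 20 random codons were induced 24 hours with 100 μM copper sulfate and grown 7 days at 30°C on medium lacking adenine and uracil, and input and output plasmid inserts were Illumina-sequenced. The nucleation score is the DiMSum log enrichment of output over input reads, centred on the mode score of non-aggregating sequences, and sequences under 100 input reads were excluded.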

Substance | amyloid nucleation score
CFVVHMSKEFYGRYFVRRIN | inactive
FYPLF | 1.27 ± 0.66
LHKIHNAIDILS | 0.504 ± 0.56
THGPFRCLSNCDVFTPNPEE | 1.03 ± 0.62
WSRYNSPCSKSMRYRSVSEA | -1.37 ± 1.1
FIFLRYGLYVFFASLNGQGY | -0.33 ± 0.83
SFIDDCP | inactive
TRCCLFDRSSIYPSYCNEEA | -0.123 ± 0.9
PMSGVGYGRMRLSAAWPVDK | -0.604 ± 0.78
YKSLDGF | 0.704 ± 0.93
VSCIV | 0.198 ± 0.58
CLIRIVKF | 1.08 ± 0.7
SEHILFLCCMMVGSVVSSAC | inactive
YSNLYFSLNNGNPVLKGYNG | -0.17 ± 0.65
VRAFGYDGLHLVITCYHCRH | 0.726 ± 0.77
YPCNLFCMMTLLNYLGSSVA | 6.49 ± 0.074
FRKEMIFYS | 1.54 ± 0.47
LVFFCNM | 7.824 ± 0.06
NVIGSGE | 1.08 ± 0.51
HTISENRSGLVTP | -0.966 ± 0.9
YSGRRQETNVGRLRSNWGGL | -0.568 ± 0.39
CLTKEYVRGFLNPGRHRTRQ | -0.271 ± 0.36
DLFYDGCSRFLVMSKGTALV | -0.412 ± 1.2
SNISSHQEASWRAYRFSESV | 0.147 ± 0.57
VISIFVEF | 3.69 ± 0.12

Substance | amyloid nucleation score
TYPYMCNHFLVLELNVIVAL | 0.363 ± 0.58
NCWQLYLKHSVPRRIQRGYA | -0.577 ± 0.48
DGQVSAVESMLRRWDSPVKG | 0.18 ± 1
KYRDLGSFMQSWAARHGTLL | -0.226 ± 0.68
MENAGTSVIPRRYIWTPKPV | 0.923 ± 0.76
YAGVRLWRRVWRAKTACSVA | 0.169 ± 0.56
FFYRPYVFMCLFYMVSRAGS | 4.41 ± 0.078
SIRLVLRFLTA | -0.166 ± 0.46
FLTQPFAFIVLCGSKYTSSD | -0.463 ± 0.48
MVSNNNLYPF | inactive
LNEHLFR | 0.615 ± 0.87
YCKFMLMGNHCFDLFCYSLN | 3.96 ± 0.09
HSGTSCWVGIIDV | -0.248 ± 0.28
TAFFCRFPSCGGYIAYRSYV | -1 ± 1.2
NILDMCLKRYIFMLE | 1.44 ± 0.37
SISNTLLGLEEWLPNYVNVF | 0.871 ± 0.49
LNNAGTFFLPEVFRLRWTNV | 0.018 ± 0.93
VVAFYL | 1.91 ± 0.37
VNSNPSSGAFWI | 0.571 ± 0.87
AFNGTSAGMCKWGACTEWCV | -0.382 ± 0.28
LLLYLTLAIGSRLCRELPQR | 0.523 ± 0.43
SYRRAVHGVVVQQKRDEFVL | -0.026 ± 0.36
QSTNLAFLRICECSE | 3.8 ± 0.071
YVMAESSASNDQAVGNWRGR | -0.643 ± 0.97
TPRCLGERTISGISFYKV | -1.04 ± 0.55

Substance | amyloid nucleation score
GWCRG | inactive
RKVSANRFSYWRMGKGMYPV | 0.042 ± 0.34
RLSNLVRPLDRLIGVVEVGM | 0.469 ± 0.42
FIFIDMRRSWDISVKDTRST | 6.802 ± 0.066
IFFFKEYCFMQVIRGFVCN | -0.265 ± 1.1
NGNNQYRPVCDYSYYRRSCS | -0.234 ± 1.6
DYKHNPKWKMCKCLLAIRNY | 1.53 ± 0.51
YRVSNVNFSFATFFTHAPVR | 1.76 ± 0.16
LYFRIGYSMLIATDVGFGDL | -2.74 ± 1.8
RKVMKTRVSIDHVNFAERRF | 1.82 ± 0.29
GAAQWMKNSTIGHARFIADL | 0.2 ± 0.39
EIRWSHIFERWV | 0.628 ± 0.38
FMVKHSDDRGYLCFLGIEKV | 0.209 ± 0.93
YINLSYPIFTNSDLFGPCWH | 3.45 ± 0.12
CSLLSYK | -1.63 ± 2.7
KSAEIKEQCTTWFMYTMLGA | -0.785 ± 0.44
QSGGVRVTNWRGNVTAT | 0.043 ± 0.39
YSMLCLKYL | inactive
ASFVSLVSAPESFNGFAVQN | -0.006 ± 0.48
YLDLFTGSSH | -0.368 ± 0.27
IVKWLMGMHWLMLAHGV | 0.181 ± 1.4
TCRNFRHG | -0.542 ± 0.57
SRGLNFVIVTFYCDLLQG | -0.881 ± 1.6
SLDCWLMGGRTANLVRRLGR | -0.39 ± 0.95
LGMSKLIMSNNVFNIFDSHP | 0.847 ± 0.9

Substance | amyloid nucleation score
VFCLRLAYNAFREMSAHKC | 3.31 ± 0.18
KTSCQSFVGR | -0.403 ± 0.54
ILPAYAQ | 0.134 ± 1.1
AGCHGSDSHPFRQPSPLLLF | 0.462 ± 1.2
WLNRMFFGDLCDMAIWKMCM | -0.217 ± 0.72
GSYGNDVWRP | -0.041 ± 0.47
LIMSFVFSI | 4.57 ± 0.08
WVWKTNWWYTRRIASLWDSR | 1.7 ± 0.56
HSSDMCLSGLM | 0.002 ± 1.4
VQNGGSLTMPRALLANTWMS | -0.671 ± 0.42
YRLILVANVQMDHWES | -0.38 ± 0.44
YQSFLASACSSEPIRFSKQH | 0.915 ± 0.66
AYYSRNIIKPGKKVEVPKMG | -1.01 ± 0.72
LCGIVRKILQTSKRSR | 0.063 ± 0.49
DGRRFFYQRGDICLSMLHNH | -1.58 ± 1.7
VVSLGNSSDYCHWKLILPTV | 0.151 ± 0.4
GFCYM | 0.997 ± 0.35
LLMAIVCIMIRQGFLRHVSP | -0.086 ± 0.56
LYNVKTGFVRQTDVG | 0.106 ± 0.91
LCFLTSIQCTALLDHQLVPR | 6.17 ± 0.079
LDTVYNVSMKKIKVTSIGQC | -0.537 ± 0.47
SAVWEVVEGDVLMWSYMKSP | 0.019 ± 0.33
TSFLV | -0.028 ± 0.91
MRKTFDAVLNAFFCKALFCY | 0.759 ± 0.39
APHTTTLTRKSFDNGCGGFG | 0.001 ± 0.38

Substance | amyloid nucleation score
TWRCQLIYTCGNVSRKPVLL | -0.148 ± 0.5
AFMSRVPFSHCIKSGGLQGT | 0.19 ± 0.49
SWCRGLEVQWLRCIFRM | 0.274 ± 0.69
CRFKYHLRV | -1.21 ± 2.4
GWIVAMRKR | 0.236 ± 1.6
YFEWFVYLYSSRVFFLMLGR | -0.038 ± 0.62
MDRALQRSWRLGLRPGEGGS | -0.455 ± 0.62
LNFVNAPRSHMSGYSIGGLC | -1.5 ± 1.7
SRGLRNLSSMPNWAGLP | 0.707 ± 0.61
LSMPGTTCIFYYRLFLVLGE | -0.043 ± 0.31
TVYSLYVIDALGFLCTNVML | 0.349 ± 0.62
FNSARGSLVPRFPRGEQR | -0.787 ± 1.9
HVLDRQLSPMDSNSYGCVAT | 0.208 ± 0.28
RGSRTY | 0.17 ± 0.53
RDHCARYHARDGTEPYSGHR | inactive
GLAWTYLRPW | 0.143 ± 0.32
YYTNWQEGYRVGRFRCDGHN | inactive
LLSLFRYN | 0.537 ± 1.1
ALCFGR | inactive
IPNSRLLNI | 0.996 ± 0.57
GLKALILNSSSCCRARFGAA | 0.307 ± 0.23
IYNGWQIRGNVNMMLCVCEW | 6.568 ± 0.059
STRFPRLDALNGKKFYRKNT | 0.157 ± 0.66
WNQADGIS | -1.66 ± 2.4
VSSVGKMPDALRVKAKWIFM | 0.141 ± 0.29

Substance | amyloid nucleation score
LVCSIMWNGVRHAPVRCKPT | -0.382 ± 0.47
LYNRIANFGPGYINLWVI | 6.375 ± 0.061
SYIDHYITKSDAVWRVSIEQ | -0.176 ± 0.35
RYYYAQEWPVALFLSRPKVP | 0.406 ± 0.63
NLFSLYGSNFLSP | 1.97 ± 0.14
ISCVICAMIILRWHV | 0.045 ± 0.9
DLIQLGLGQVSDPLGTWWSG | 2.29 ± 0.3
MRFAVTD | -0.146 ± 0.23
SVGGWLSYRSDV | -0.901 ± 0.89
RNVCIIVVSEW | 6.589 ± 0.056
YSLLY | -0.652 ± 0.66
SRWFCYRLVFTFVGPTRHLD | 0.172 ± 0.77
FSALPTLASGLGFGR | 0.604 ± 0.73
FVTIWWLYRTCIFLSTVRTT | 1.5 ± 0.26
AVSIRCFGRMMTLSGSKIAG | 0.838 ± 0.25
VYACLSHSVRV | 1.05 ± 0.97
RGDGTRNRRCAIFSN | -0.064 ± 0.99
QECMKLNLAFYWSDCVVRSF | 1.76 ± 0.49
NLSGRSLSRLIDLFNRFTC | 0.919 ± 0.29
RSRKK | 0.34 ± 0.21
LSGDIFRNHMNRFYL | -0.071 ± 0.27
YSCMGECFTC | 7.89 ± 0.067
DGHKGEDSMAKLNFIFRLYS | -0.33 ± 0.38
SPWFAHITPRVIMEERH | -1.18 ± 0.79
WHSIADLNLVDYEICVNFFY | -0.75 ± 1.5

Substance | amyloid nucleation score
DRCNDAVGRKRRRTKMRGLY | 0.457 ± 0.45
VRQNNGQMFFYWSWFIGNNP | 8.12 ± 0.063
LWNCKIVVWSFIGSVCTTGK | 2.29 ± 0.19
GFKVVDTAWFL | -0.116 ± 0.27
SVISNVCSKCTVTRRDGP | 3.17 ± 0.11
LGPDSLHLFGMVGSGRLNIL | -0.029 ± 0.88
VRFIFSRSIGLQ | -0.361 ± 0.42
SMVYAYAAIILGWWNWGRGC | 0.003 ± 1.1
LSEDVHRTVVRYWMKSRR | 1.74 ± 0.31
VYHVTWRLPF | 3.4 ± 0.12
CLQCKCYNNCVQLRVTVGCM | 1.37 ± 0.52
DFRAIS | 0.576 ± 0.79
FVMSHSL | 0.987 ± 0.43
SLNREYVYKRGGVREWCRYL | 0.856 ± 0.59
PLAAYCSVDYGQKIQIATVP | -0.541 ± 0.42
IVTCESGCRLKSSRDKCPSR | 0.284 ± 0.59
TCFSSILKDMVWRNRRRWGY | 0.216 ± 0.84
AQSPQVNSLWCGMNFTTFPG | 1.92 ± 0.2
EGVQKDC | inactive
LSRHGKVKCKLLATGGLT | 0.184 ± 0.45
PPVHSDFKWAFVWVQLVWRG | -0.016 ± 0.53
RADIKAIMLNYMIFA | inactive
RGELVPHVVMYNLWKL | 4.21 ± 0.082
TTWER | 0.496 ± 1.2

Source: the supplement of paper PMC12042874
